Test results: article PMC5566480
Residue numbers refer to the chain shown, from its start. Numbers in names are those of the source.

Target: Recombinant human Toll-like receptor 2 (rTLR2), O60603
Assay: ELISA
Conditions: chain shown with the change;; parent: est. 0.37; read off a plot

Sequence of Recombinant human Toll-like receptor 2 (rTLR2), O60603 (O60603 21-784): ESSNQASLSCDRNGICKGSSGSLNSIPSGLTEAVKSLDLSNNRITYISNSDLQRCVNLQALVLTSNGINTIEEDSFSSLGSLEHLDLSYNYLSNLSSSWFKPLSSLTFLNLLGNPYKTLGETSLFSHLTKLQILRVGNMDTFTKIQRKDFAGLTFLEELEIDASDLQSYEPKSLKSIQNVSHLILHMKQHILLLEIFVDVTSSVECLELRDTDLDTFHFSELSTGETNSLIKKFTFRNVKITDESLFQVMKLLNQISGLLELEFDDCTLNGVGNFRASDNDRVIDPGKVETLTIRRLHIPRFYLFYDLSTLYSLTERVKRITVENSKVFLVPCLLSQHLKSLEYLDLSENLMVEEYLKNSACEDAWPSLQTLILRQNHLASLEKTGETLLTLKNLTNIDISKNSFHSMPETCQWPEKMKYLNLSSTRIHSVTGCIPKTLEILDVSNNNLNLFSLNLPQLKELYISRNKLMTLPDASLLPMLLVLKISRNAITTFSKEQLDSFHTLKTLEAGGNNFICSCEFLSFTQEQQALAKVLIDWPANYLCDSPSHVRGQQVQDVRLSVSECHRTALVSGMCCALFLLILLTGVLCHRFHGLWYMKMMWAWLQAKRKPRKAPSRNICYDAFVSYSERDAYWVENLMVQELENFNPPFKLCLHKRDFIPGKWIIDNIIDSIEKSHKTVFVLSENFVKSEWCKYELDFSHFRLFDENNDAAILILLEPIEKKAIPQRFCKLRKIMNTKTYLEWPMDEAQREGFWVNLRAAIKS

B1: Recombinant LipL32 wild type, mature form (rLipL32; 21-272) V35S (protein)
chain: GAFGGLPSLKSSFSLSESTVPGTNETVKTFLPYGSVINYYGYVKPGQAPDGLVDGNKKAYYLYVWIPAVIAEMGVRMISPTGEIGEPGDGDLVSDAFKAATPEEKSMPHWFDTWIRVERMSAIMPDQIAKAAKAKPVQKLDDDDDGDDTYKEERHNKYNSLTRIKIPNPPKSFDDLKNIDTKKLLVRGLYRISFTTYKPGEVKGSFVASVGLLFPPGIPGVSPLIHSNPEELQKQAIAAEESLKKAASDATK
response: 0.25 OD450nm

B2: Recombinant LipL32 wild type, mature form (rLipL32; 21-272) L36S (protein)
chain: B1 chain with S14V, L15S
response: 0.23 OD450nm

B3: Recombinant LipL32 wild type, mature form (rLipL32; 21-272) F34S (protein)
chain: B1 chain with F13S, S14V
response: 0.31 OD450nm
